Among the targets are HA-Exo70(S47D); HA-Exo70(S47D/S59D); HA-Exo70(S59D).
Common to all, as to experiment: co-immunoprecipitation (IP: HA, blot: Flag)
Holding throughout (settings): 293T cells; parent: 1.00

Results on three substances are retold here after paper PMC6949295 (2020).

On to “Exo70 wild type, HA-tagged and Flag-tagged copies co-expressed (from UniProt O54922) S47D”, for which the response (relative band intensity) in the experiment with HA-Exo70(S47D) worked out at 1. With “Exo70 wild type, HA-tagged and Flag-tagged copies co-expressed (from UniProt O54922) S47D; S59D”, in the experiment with HA-Exo70(S47D/S59D), the response (relative band intensity) was 0.96. As for “Exo70 wild type, HA-tagged and Flag-tagged copies co-expressed (from UniProt O54922) S59D”, in the experiment with HA-Exo70(S59D), the response (relative band intensity) turned out to be 1.
